In a protein production outcome set (Wang et al. 2014):

Test: label from the status in PepcDB records

Sequence | protein production
MKLVEHYIMRGTRRLVLIIVGFLIFIFASYSAQRYLTEAANGTLALDVVLDIVFYKVLIALEMLLPVGLYVSVGVTLGQMYTDSEITAISAAGGSPGRLYKAVLYLAIPLSIFVTLLSMYGRPWAYAQIYQLEQQSQSELDVRQLRAKKFNTNDNGRMILSQTVDQDNNRLTDALIYTSTANRTRIFRAGSVDVVDPSPEKPTVMLHNGTAYLLDHQGRDDNEQIYRNLQLHLNPLDQSPNVKRKAKSVTELARSAFPADHAELQWRQSRGLTALLMALLAISLSRVKPRQGRFSTLLPLTLLFIAIFYGGDVCRTLVANGAIPLIPGLWLVPGLMLMGLLILVARDFSLLQKFSR | failed
MTRAKDRLSAVQVKQSPAGKYADGGGLWLVKSSKDTGKWVLRAVVHGRRREMGLGSVSDVGLAEARKSADKWRTVVRAGGDPIKERARQKREAARNLHLLKHVAEDCFDAIKGNLRGQGKAGRWFSPLELHVLPKLGKVPVADLDQVDIRDTLKPLRDTKFETMRKALNRLDMVVRHAAALGLDVDTQVVDKAKALIGASQHKAVNIPAMPWHEVPGFYQSLSVGSVTHLALRLLILTGVRSRPLRFLRVDHIAGDVWTIPADMMKGREGATGDFRVPLSKEALAVIEQAKRHARDGFLFPSLRRGVVSDMTLSRYMERRKLTARPHGFRSSLRDWLAECTDAPHEVAETVLGHKVGGAVERAYRRTDFIDQRAKLMERWADHCKVVQLVSAV | failed
MAKNQWNELLLEQVRQLPMASSKEHVQLRLNLLIVEASKQKKTIPTEFELIFQAYQLSRSGKLIDSISVFFDAINFSQQNQQEFLICFCHYNIGTLYGMLGNYFYAQKFLAKAEKMQQFCDGYITGIIKNNIGDIFRQIGNFNEALIYLTQAAELLSQHGPKTAAALSYFNIAEIKAKQFLFTEANELLENLYQDIKNEPRYLGFYYKIKAEIASHSGEFEQADKLHLLSIENMQISEHDYYYAEMILEYCHFLTSCLQYKKLDQFIALGLAVAKKIESDKLIDGFNDIILLRIKDIDDINIREKHYQTLTSSLLNSRRELLKREGDYLQQLYRLNVAKLNLSTMKSLSDNLAVINKVGHYINTSSDIKNALPQIQQDLASLFQTDTLALGFYNSEQDQITIHYLDNNLPAQTPYITDCKSEATYMSYCIKSNSAFYFNHMNSEQKVAMLGDRCDSKVQFKSAMFSPITINGEVKGVFTIQARESYQYQTFHFELFSQLISYISIALENQYNRQQLLHLSQTDHLTQIWNRKSLEAHFNQLKQQQNQEYTGIMIDIDHYKEYNDTYGHIAGDEVLIQVSRLIKQGFHSLETQVYRYGGDEFFVLIPSIKPEKIRQKLDKLLIEVKKLLIPHKASTCSCYLSISVGIGYNKDPENQLSLNSLVNTADRALYQAKENGRNCYFELAHIKETMY | failed
MVWHYSNIMHKKSKAQLQDYFKDLTAIGNASSEQMEANRDGIQGETEENINPPPQNPKKRLSLPNLSSPSLAAEAENLESAGQPGSDYLSNSFGQANKANVAVAPVNSDYIAPEKLEDQPGDFFGGKRWFWLGGILVLLVGGTALTLPKALEMVNGWRQEAQLKAYEQEQHQDSEVLRLALLPPDQRRSKLEAIANQEVLSLERSRARFLLAGDLLAEFEGGPALRVLEGLEVQYPVLAPYILLMRGRGYQLSNENDQAEATWQDILDQYPDSPVVVNALENLGSLDETYWQQAIADHPGHPRTLAILHQQLESEPNALEIQRQILQNHPTDGRTAAVINSLTANRQGELTPEDWQAMGDNFWHRRIYNQAIAPYEKAPSNARNLYRLARAQQISKLDNEAKENYRQLIATYPDSEETALALRRLAELVPPREGVQYLQQLEQQFPDQGASALAARIDLLAKFDANQAQQARQALLQKYPNSDAAADYRWRQAQEFAKAGNYTEAWRWAKEIANQNPQSDVTPKAIFWIGKWAQQLGRSADSKAAFETVLAKYPQSYYAWRSAVLLGWQVGDFNSVRFLNPPVTVPDQRPLPPAGSPTFRELYRLAQDQEAIELFNAEVRARAEGEATPELTVNEGFTEALLKLTQQEYLQGINQVLNLRNPEDPEQRKQWEELRSTRDYWQTLFPFPYQQLIFEWSEKRQVNPFLVTALIRQESRFEKNIQSPVGATGLMQIMPATAEWIAPQIGLKEYSLTDPTDNVNMGTWYFDHTHKTYNNNSALAVASYNAGPGNVAKWLQEFNNADPDLFVERIPFAETKGYVESVFGNYWNYLRIYDPDVEKLMGQVGKN | failed
MIFRQLFDPQSSTYTYLLADPASREALLIDPVFEQVRRDAALLDELGLRLVATVDTHVHADHVTGAWLLKQRTGSTIAISAASGAQGADRYLNDGDRCAFGARYLTVRATPGHTSGCISLVLDDESMAFTGDCLLIRGTGRTDFQQGDPRALYRAVHARLFTLPAACLLYPAHDYRGLTVTSVGEERRFNPRLGGDLSEDDFAGYMRNLGLAHPRQIDVAVPANLQCGVAANAPDALAAADWAPLVYTFAGFWEIDPQWLEDHLPAVQVVDVREPDEFAGPLGHLPGATPIPLGELAARTGELARDRPIVTVCRAGGRSAQATVILLKAGFDAVANLGGGMLRWRGEGRVVMDGRS | failed
RDEVAGILRLGLSQSFGTMHIIPAIDKLRNQYPDLQVEVRLFDHQADMLKDGLDLWVTNFEDLPEGYVAQRLADSNFVLAASPDYLIDKKVPHHPLDLVEHNCLTYQ | failed
MKHSGFQAKRLIQLALPVLIAQVTQTMMGFIDTVMAGRVSAVDMAAVAVGTSLWLPAILFVQGLLMAFTPLFAHHNGANNQKAIQPLAFQGAYLALIGGLGVMVFLASAPLVLSHMNLEPQLYNLTIGYIDGILWGAPAFVLYQVLRGCSEGISYTLPTMVIGFVGLAVNIPANYIFIYGHFGIPAMGGAGCGIATALVFWAMLIAMAIYMQFHKKFAALAPFSQFHRPDFATMKKMTKLGLPIAMALFFEVSLFAIIALLLAPLGATVVASHQIALNFSAIVFMLPLSIGIAVSIRIGYYLGRDRADISAVVAKVGLLLALSLALSTAILTVLFRFQIAELYNSDPEVVVLAGSLMLMAALYQLSDSVQVVAAGALRGYKDTRSAFYITLFSYWGIGMSLGYTLAYTDFIVPAMGAHGFWTGLIAGLTSAALLFFIRLRYIQKHRVHLSLIEGDSVHH | failed
MPVRTSQASQGNRGKGVGLGLALASAVAFGGSGVAAKPLIEAGLDPLHVVWLRVSGAALVMLPLAVRHRALLRRRPALLIGFGLLAVAGVQACYFAAISRIPVGVALLVEYLAPALVLGWVRFVQRRPVTRAAALGVVLAVGGLACVVEVWSGLGFDALGLLLALAAACCQVGYFVLSDQGSETGEDAPDPLGVIAFGLLIGALVLTVVARPWTMDWSVLGGRADMNGDSVPAALLLGWIVLIATVVAYVTGVLSVRRLSPQVAGVVACLEAVIATVLAWVLLGEHLSAPQIIGGAVVLVGAFIAQSSAPAKPSDGPVTGGGGAERQLSARGTAA | failed
MQDQTEAVRFLSDPATHGGAPVERVETHGAFVFLAGSQAFKIKRAVRYDYMDLSTLALRHRMLARELELNRPAAPAIYRDLVAVTREPEGLALGGPGEPVEWVLRMWRFPAEDELSAVAERGALDDRLAARLGRSLAAYHRAAPVRSSDGAALVEAILDELGRVFAGMEDGLGAERIARFGTQARDMLARTKPLLRARSEAGRVRRGHGDLHLRNLVLIEGEPVPFDALEFDETLGTCDILYDLAFLLMDLDHRGLTRAAGIALAAWLFEMRGDEDGGLAALPLFLAVRAAIRGMVLVQTDAARGAPGHSDAEARGLLDEALRALSPPPPRLLAIGGVSGSGKTVLAAALAPRLGLPPGAIHLRSDLERKSRAGVPTDRRLGGAAYGEDARHAVYGQMLARAGAILAAGWPVILDATFLDPADRAAARALAAERGVPLEGLWLEAPPDLLVARVSTRRSDASDADEAVVRAQLARQPRAGDWRTLDTGRPPEEVAHSACRALGLD | failed
MSSVLSFALAAWRRLRGYRDSLEVAGGLLAGNLFDTINMVVISMFSNYLVGQRGLLALYPQLSALTGGLLLSLSSRAISNHVLGGAGPEVYLTGLAVSAASGIFLTTVFSTATSIALGLEPVMMVPAALITLLGVLLVLTLLTWIIIVMLLRLGVSPDNVMPAILTSIIDMAVLILAIVAFSMVSRMDEGIYLVAVVTFSLALAFSAAAYDFRLTIDTTFSNFALQVVEMIAGVLLSATAPVLAATGLLPVLPPLNKLAGSVAGSMASAATTSVSLYGHYLDLPSMISTLFKITVGAIPSALYIGVIGYVLASVGEGSVGPQIVLASLLVSIVLSILGSLIAWLLVVVSIRAGLDPDAIAMPLATSLVDLLGVVSLSVVAWILLST | failed
MTSTPPTPGPKLLEERSLGGILIHFLAIPTGVVGAGLLYLLATDEFTKRNARNALDWHLTVLLITAVTFGSVFTYAELTGQGVTDVSIFPSSVSTVAGIVTSALLMLWFAVTAWTFAVGLIAMVKAIFGTAWRYPFSLALVERFGSHINLSDRWPLVILGYIVLSPLLIWAVFFVPANDAIVILSAFGLLGLILGLTPLTGIAMYRHGKEHWLQDADQQSHVFAHVGLPILVAAIGYVVSWSFTQSVSPQGDAMYVFLAAFWISSIVYLIRWWTTSSE | failed
MSLSAPRITRVETAAIRAVGPSVLVRVWAGDEHGLGECYPSAPAAGIHHIVMNMEEQLLGEDPRDVERLYEKMRRWNIFTGGQAGAVITALSGIETALWDLAGKLQGVPVYRLLGGAFRRRVRLYADCNAGTVDAAAHHIEGGLFVEGSNEEYIAVAREAVERGFDAIKLDVDDITGPLHRDFWNGAISPREHEAMVARVAAVREAVGPEVEVAIDMHGRFDIPSSIRFARAMEPFGLLWLEEPTPPENLDALAEVRRSTSTPICAGENVYTRFDFRELFAKRAVDYVMPDVAKCGGLAEAKRIANLAELDYIPFAPHNVSSPVGTVAAAHVCAAVSNFAVLEWHAIDMPHWEDFVRYPGGPVIREGHIELTEEPGLGLELDEEAAFEHRHEKGGVPFFGRTEGHHHHHH | not failed
MSGTGEVRGMRAARIAAGAVIPGELALAVCLAAGVRPPVWATAAAEAVALAVLMLEAWVLRSLYASRRAQGLEPPAALRAAVRAVVPARVRRLLVHELRAAASLGRWAARRKHGVRPGDHVAGYTGPQTAMMYGLIFVSVIETVALAVLIPWPVVHRVLLVLDVYGVLMMLGLHAACVTRPHVARPDGSLRIRYGALFDLAVPADAVASVRVDRCYPQGRLVTLSEKGVLDLIVAGQTTVTLELTRPLVFTRPLGGRGEARTIRFHADDPRALVGALRRPALT | failed
MTQETALGAALKSAVQTMSKKKQTEMIADHIYGKYDVFKRFKPLALGIDQDLIAALPQYDAALIARVLANHCRRPRYLKALARGGKRFDLNNRFKGEVTPEEQAIAQNHPFVQQALQQQSAQAAAETLSVEAEAAESSAAE | not failed
MEGSQQTITSKQLVRMLKDASRGSKGKGSGEMKFCFLIGAGASISSGIPSGAKLAWDWLQQIKEDCDGEDFEDWKIEIKMPDQHIEERVGEFYPEIYEKRFGHAPETGYDYIRGLMEGREPSLGYLILANIMVREKHNVVITTNFDNLLEDAIRTYTKEKPFIAGHEALADYVPKRSDRPIILKLHRDLFLQPFSDQLNTDILQAAWESILGKFLSDYHLIVLGYGGNDGSLMNYLLKLKNRKPIYWCVRNTDKATSKSLWNTLSPKAKRLLKNDGYLVPIDDFDRFMYDCYAALGYKFLEGIEKIEKPKSIHEILKPNYARIESIQTQLRQLSQTEEELSKESFQSIKSFLPDSWMWILKANQEKDIDKKDKIYREGIAKYPQDANLLGDYADFLCDICHDYDRAEAYYKRALEADPNHANTLGNYALFLKDVRHDYDQAEAYYKRALAADPNHANNLGNYANFLYNIRCDYDQAETYYKKALEADPNHANTLGNYANFLCDIRHDYDQAEGYYKKALEADPKNAITLGNYALFLNDIRHAYDQAEAYYKRALEVDPKSANKLGNYAHFLITCRGDFKRADSLIQQAFENADNDEETKPLQAKLWFYRYAHYYEEWGAEAEKELAALLNVGAKSIGWNLAPDIELARKNKHPHIEQVEAFAKALTEKAQ | failed
